Changes are numbered by the printed parent chain.

The target of test [1] is HPV-16 L1 VLP (重组人乳头瘤病毒-16型VLP蛋白, 未变性) (人乳头瘤病毒16型 (HPV16)) (UniProt P03101). As to the kind of experiment: indirect ELISA, native VLP 2 ug/ml coated, antibody 0.3 ug/ml. (An ELISA detects its analyte on a solid surface through an enzyme-linked reagent.)
Test [2] shares this target. As to the kind of experiment: indirect ELISA, HPV16 VLP 200 ng/well coated, antibody at 1, 0.2 and 0.04 ug/ml.
Test [3] shares this target. Description: competition ELISA on coated HPV16 VLP; HRP-labelled antibody 0.3 ug/ml; competitor: WHO international standard 05/134 at 0.5 IU/ml.
The target of a further test is T1, HPV6 VLP (HPV6, UniProt P69899 1-500).
T1 sequence: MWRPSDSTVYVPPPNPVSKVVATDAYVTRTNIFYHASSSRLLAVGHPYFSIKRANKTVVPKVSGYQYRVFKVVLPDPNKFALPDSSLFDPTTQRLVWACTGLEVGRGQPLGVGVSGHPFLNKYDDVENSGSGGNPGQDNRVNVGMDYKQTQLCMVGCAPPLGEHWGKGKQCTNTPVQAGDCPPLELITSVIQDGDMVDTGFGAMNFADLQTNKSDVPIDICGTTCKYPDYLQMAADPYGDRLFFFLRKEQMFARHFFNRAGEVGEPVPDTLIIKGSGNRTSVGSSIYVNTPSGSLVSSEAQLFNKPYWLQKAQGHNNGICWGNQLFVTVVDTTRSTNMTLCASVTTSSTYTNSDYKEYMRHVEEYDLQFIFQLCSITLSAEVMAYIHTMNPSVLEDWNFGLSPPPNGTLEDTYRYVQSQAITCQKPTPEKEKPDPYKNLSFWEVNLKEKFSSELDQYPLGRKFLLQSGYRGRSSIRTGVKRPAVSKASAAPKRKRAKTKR
As to the kind of experiment: SPR, BIACORE 3000. A general note: Surface plasmon resonance follows binding to a sensor surface in real time, without labels.

The next test has as its target T2, HPV11 VLP (HPV11, UniProt P04012 1-501).
T2 sequence: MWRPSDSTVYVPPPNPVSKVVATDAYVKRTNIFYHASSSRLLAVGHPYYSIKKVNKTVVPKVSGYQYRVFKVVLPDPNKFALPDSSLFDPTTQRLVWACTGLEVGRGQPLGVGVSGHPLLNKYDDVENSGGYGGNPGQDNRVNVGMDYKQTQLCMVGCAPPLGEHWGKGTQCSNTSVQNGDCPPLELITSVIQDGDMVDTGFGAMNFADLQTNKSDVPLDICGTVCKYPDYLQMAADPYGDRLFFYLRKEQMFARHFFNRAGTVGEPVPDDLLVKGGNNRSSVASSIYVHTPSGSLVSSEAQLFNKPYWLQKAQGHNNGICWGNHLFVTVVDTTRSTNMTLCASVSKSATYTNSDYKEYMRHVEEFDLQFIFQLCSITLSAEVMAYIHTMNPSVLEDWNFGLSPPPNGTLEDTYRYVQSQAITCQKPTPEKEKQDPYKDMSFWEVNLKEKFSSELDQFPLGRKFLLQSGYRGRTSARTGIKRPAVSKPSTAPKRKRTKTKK
Description: SPR, BIACORE 3000.

A further test concerns the target T3, HPV31 VLP (HPV31, UniProt P17388 1-504).
T3 sequence: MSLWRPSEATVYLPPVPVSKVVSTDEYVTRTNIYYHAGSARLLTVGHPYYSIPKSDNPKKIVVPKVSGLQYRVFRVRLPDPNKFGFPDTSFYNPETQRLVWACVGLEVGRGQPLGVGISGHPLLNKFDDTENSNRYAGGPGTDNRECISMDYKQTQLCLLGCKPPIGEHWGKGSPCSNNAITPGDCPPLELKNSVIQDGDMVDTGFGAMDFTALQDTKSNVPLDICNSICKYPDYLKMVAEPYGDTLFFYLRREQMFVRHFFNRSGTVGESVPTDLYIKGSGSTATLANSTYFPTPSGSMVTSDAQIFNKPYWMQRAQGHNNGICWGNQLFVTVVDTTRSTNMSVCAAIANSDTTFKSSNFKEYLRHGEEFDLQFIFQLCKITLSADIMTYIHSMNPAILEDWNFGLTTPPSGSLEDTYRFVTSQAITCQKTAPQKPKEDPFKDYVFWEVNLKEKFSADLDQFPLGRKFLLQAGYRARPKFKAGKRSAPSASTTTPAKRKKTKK
Description: SPR, BIACORE 3000.

A further test has as its target T4, HPV33 VLP (HPV33, UniProt P06416 1-499).
T4 sequence: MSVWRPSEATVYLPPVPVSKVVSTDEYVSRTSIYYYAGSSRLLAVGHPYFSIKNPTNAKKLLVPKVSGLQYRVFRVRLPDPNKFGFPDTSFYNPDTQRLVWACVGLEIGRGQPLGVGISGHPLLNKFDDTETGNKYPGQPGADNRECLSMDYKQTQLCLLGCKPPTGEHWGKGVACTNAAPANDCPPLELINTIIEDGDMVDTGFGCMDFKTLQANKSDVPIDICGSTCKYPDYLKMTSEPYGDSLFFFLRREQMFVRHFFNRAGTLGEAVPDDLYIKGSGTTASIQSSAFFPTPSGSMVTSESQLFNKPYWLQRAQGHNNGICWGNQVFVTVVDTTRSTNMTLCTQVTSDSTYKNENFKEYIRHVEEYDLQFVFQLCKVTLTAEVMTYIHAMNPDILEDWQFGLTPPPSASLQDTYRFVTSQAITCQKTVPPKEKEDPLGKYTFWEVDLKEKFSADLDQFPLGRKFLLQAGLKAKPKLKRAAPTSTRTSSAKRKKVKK
Description: SPR, BIACORE 3000.

The next test has as its target T5, HPV45 VLP (HPV45, UniProt P36741 30-539).
T5 sequence: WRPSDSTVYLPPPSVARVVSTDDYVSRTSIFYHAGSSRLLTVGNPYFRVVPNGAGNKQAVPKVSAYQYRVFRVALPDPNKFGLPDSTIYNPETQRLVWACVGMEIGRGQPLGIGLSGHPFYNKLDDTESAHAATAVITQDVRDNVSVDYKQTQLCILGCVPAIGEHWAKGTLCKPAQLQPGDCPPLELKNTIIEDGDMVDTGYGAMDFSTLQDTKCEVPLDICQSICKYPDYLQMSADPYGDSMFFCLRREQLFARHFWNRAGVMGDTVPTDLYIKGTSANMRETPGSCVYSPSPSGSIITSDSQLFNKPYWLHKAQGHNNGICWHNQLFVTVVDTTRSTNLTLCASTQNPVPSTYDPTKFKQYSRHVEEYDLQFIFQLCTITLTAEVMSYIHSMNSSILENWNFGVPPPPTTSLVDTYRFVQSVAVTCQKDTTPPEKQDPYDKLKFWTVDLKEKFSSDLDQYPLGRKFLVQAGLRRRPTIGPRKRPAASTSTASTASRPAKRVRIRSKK
Description: SPR, BIACORE 3000.

A further test deals with T6, HPV-18 L1 VLP (HPV18, UniProt P06794 62-568).
T6 construct: also called HPV18 VLP
T6 sequence: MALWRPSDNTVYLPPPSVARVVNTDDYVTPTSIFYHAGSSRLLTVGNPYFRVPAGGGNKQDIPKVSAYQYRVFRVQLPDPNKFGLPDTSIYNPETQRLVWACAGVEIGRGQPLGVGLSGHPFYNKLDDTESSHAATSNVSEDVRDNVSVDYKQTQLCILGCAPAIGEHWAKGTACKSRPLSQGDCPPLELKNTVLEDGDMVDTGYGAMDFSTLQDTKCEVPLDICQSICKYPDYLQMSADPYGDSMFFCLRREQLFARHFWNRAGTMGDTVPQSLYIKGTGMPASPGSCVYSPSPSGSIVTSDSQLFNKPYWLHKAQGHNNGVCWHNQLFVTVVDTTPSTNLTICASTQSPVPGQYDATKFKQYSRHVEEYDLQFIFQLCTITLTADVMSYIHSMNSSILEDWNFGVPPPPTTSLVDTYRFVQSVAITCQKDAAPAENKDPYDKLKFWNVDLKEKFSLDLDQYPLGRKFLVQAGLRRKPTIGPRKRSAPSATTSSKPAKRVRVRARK
As to the kind of experiment: indirect ELISA, VLP 2 ug/ml coated.

The target in a further test is T7, HPV-58 L1 VLP (HPV58, UniProt P26535 27-524).
T7 construct: also called HPV58VLP
T7 sequence: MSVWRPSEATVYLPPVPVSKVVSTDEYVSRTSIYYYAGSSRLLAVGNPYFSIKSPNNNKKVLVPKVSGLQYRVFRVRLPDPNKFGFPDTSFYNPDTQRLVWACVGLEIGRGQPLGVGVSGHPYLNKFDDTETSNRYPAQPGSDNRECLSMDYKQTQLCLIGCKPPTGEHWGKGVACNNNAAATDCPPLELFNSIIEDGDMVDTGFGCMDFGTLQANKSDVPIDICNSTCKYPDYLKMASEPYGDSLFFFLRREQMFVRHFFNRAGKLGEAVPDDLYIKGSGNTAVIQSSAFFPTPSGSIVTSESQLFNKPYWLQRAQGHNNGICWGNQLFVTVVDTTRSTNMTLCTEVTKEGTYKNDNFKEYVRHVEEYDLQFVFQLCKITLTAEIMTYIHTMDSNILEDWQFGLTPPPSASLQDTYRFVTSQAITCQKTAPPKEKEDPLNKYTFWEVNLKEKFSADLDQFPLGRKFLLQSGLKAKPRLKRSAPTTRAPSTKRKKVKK
Description: indirect ELISA, VLP 2 ug/ml coated.

Sequence of UniProt P03101 (P03101 whole entry): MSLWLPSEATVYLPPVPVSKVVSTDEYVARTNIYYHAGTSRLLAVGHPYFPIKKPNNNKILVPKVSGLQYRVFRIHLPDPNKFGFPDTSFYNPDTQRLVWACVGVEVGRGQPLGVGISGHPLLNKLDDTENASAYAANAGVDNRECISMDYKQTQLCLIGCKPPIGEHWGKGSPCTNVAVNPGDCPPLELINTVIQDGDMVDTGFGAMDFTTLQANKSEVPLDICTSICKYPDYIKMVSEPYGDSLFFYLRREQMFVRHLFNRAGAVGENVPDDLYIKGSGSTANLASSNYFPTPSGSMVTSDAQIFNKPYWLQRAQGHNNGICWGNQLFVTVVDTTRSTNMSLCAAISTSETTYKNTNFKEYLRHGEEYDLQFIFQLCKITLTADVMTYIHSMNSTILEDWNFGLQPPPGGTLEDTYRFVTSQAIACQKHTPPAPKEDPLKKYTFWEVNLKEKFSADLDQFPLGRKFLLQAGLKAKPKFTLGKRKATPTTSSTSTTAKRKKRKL

B1: 单克隆抗体4G12 (杂交瘤细胞株4G12, CGMCC 11298) (antibody, V domains shown)
VH: VKLQQSGAELVKPGASVKLSCTASGFNIKDTYMHWVKQRPEQGLEWIGRIDPANGNPQYDPKFQGKATITADTSSNTACLQLSSLTSEDTAVFYCAREVGGYYFDYWGQGTTVTVSS
VL: DIQLTRSPAIMSASPGEKVTITCSASSSVSYMHWFQQKPGTSPKLWIYSTSNLASGVPARFSGSGSGTSYSLTISRMEAEDAATYYCQQRSSYPWTFGGGTKLEI
B1 registered an OD450 in test [1] of more than 1 OD450. The molecule also registered a 信号强度 (ELISA) in test [2] of more than 1. This molecule also showed a 抑制率 in test [3] of more than 40%.

B2: 单克隆抗体5A6 (杂交瘤细胞株5A6, CGMCC 11299) (antibody, V domains shown)
VH: B1 VH with P57T, Q58E, K62N, A71S, C79Y, Q81H, F93Y
VL: DIQLTQSPSSMSASLGDRITITCQATQDIVKNLNWYQQKPGKPPSFLIYYATELAEGVPSRFSGSGSGSDYSLTISNLESEDFADYYCLQFYEFPLTFGAGTKLEI
notes: Capture antibody of the sandwich kit; also called 克隆5A6
In the case of B2, the binding result with HPV6 VLP is on record as “no binding (tested: antibody up to 20nmol/L)”; with HPV11 VLP, “no binding (tested: antibody up to 20nmol/L)”; with HPV31 VLP, “no binding (tested: antibody up to 20nmol/L)”; with HPV33 VLP, “no binding (tested: antibody up to 20nmol/L)”; with HPV45 VLP, “no binding (tested: antibody up to 20nmol/L)”; with HPV-18 L1 VLP it was “no binding (tested: 0.3μg/ml)”. For the same molecule, the binding result in the test with HPV-58 L1 VLP was “no binding (tested: 0.3μg/ml)”. Also, the OD450 in [1] was more than 1 OD450. Further, the 信号强度 (ELISA) in [2] was more than 1. The 抑制率 in [3] is more than 40%.

The values are drawn from patent publication CN105585631A (BEIJING HEALTH GUARD BIOTECHNOLOGY CO LTD, dated 2016).
